The results in this text go back to the DeepSol protein solubility set.

The nature of the data set: soluble on expression in E. coli; label from the status in PepcDB or PDB records.
As to “MSLTLSPTTIFPARCIHTMNATQPRATHVAVREGRILDVGDASLREAWPDAVVDSRFSDKVLLPGLIEGHSHLLEGGMWRFVYVGYYDRRGPDGRVWPGLKSYEAVIERLRAAEALMPDAQAPLLAWGFDPIHFGGQRMTTCHLDQVSKTRRIVVLHASVHLLNVNTAMLRQADIHAGLRIDGIVRAADGTPTGELQEFAAMFMVFKHIGNVFFDAGQSEEGIRNFAKIAQQAGVTTATDLSHALADDMVDNLVRVTGEDDFPLRLVAAYSPMRDMNGRSVDRVVRATQRNTAKLHFGLVKLVIDGSIQGYTARVRWPGYHNGAPNGMWIIAPQQLRELLMEYHKAGLTIHIHTNGDEATEVAMDALESVLAEYPRWDHRHTLQHCQMADAAQFRRMARLGMCANLFANHLYFWGDAHYTDTLGPARAFRMNAAKTALQAGVPISLHSDAPITPIGPLFTAWCAVNRVTAGGRILGSQERIPVMDALHAMTLGAAYTLKLDHLIGSIEVGKLADFAVLEADPLEVAPQDLAGIGIWGTVLGGRSFPAPQLSEGHHHHHH”, the “soluble on expression in E. coli” value is reported as “soluble”.

Consider “MSLTMREVAKAAGVSIKTVSNVVNDYEFVSQATRDKVNKAIAELGYTVNVSARNLRRGQTGIIGLAIPDLQMPYFAQLSSLVIEEAKKVGLRVIVEPTQYSRDGELEALHGSQQMMIDGLIYSPLELGQDDVEQLKVDYPLVLVGERIFTDQVDHIATENVEGAKRATQYLLTTGCRRVAVVGVHPGEKVGSAALRYQGYLEALEEAGVEFDDRLVVESGMWHRSDGVRAMNALLDSGVEVDGVVALNDMLASGVMHAIQMHGLHIPDDISVVGFDNSDDSQYLSPALTSIAPGLEAVARLSVKVLKERIDGRDPNADRPGEKVFRKVASSLVVRQSTEGHHHHHH”, for which the “soluble on expression in E. coli” value is given as “soluble”.

Consider “MSLTNLHYTVKSLMRFKDKTVIISGGGNSAIDWANELEPIAKKVYLTYRKEALNGHEAQISQLLSSSATCLFHTTISKLIARDNKEVIEQVELTDHQTGEVTNLAVDEVIINHGYERDKSLLDQSEVTLDRIDDYYIAGTPTSATSVGGIYAAGDVLKHEGKLHLIAGAFQDAANAVNQAKQWIEPEAHQSAMVSSHNHVFKERNRELIRQMLKEGHHHHHH”, for which the “soluble on expression in E. coli” value is “not soluble”.

Regarding “MSLTNQVTYLFFHGMKQISEHLFTTEEQAIIARSKAEGSYMKAPNGQATNLNKKQWAQVRTRAFREWFGDWENNPDEASKVRDANGEPLVVYHGTPISRDQAADRSKFRIADDWEIQTINAPFHTFRGGAYNGLIFTSLTEEKARSIGETRSMSIPDSEDGREQWTTDSYVYDLFVNARQPFDVKNPNAVKDILDALEGQLTAYDFYLGMEVPVSRKEAEKILEGGNSWRVVETPSMQEIIRSRGYDAIHALDEGVQYMAVFAPNQLKASGKYLYSERNTGVFSPGNNDIRFREVHHGVPASFTGYRSMKTETVRNDNIPAVLAALREKLEDTEQEWQDRILDYIAENYPTQTTVSAQTRSPEGLKEREAMKEGHHHHHH”, the “soluble on expression in E. coli” value is recorded as “soluble”.

Take “MSLTPGRFLGWENADTASRTASDAIAVMDRRTWQALTTGHVELPCRRIHAGLWFRLLRTLLDELNTPLSACGTYAGYLRQVWQGCGHPLRAGQSLWRPYETLNPAIRLQMLEAAATAISLIEVRDISPPGEHAKLFWSELQTGFTSGLPAKPPKPEPVNHWQRAVQAISEAIIEARHDPETARSLFAMASYGRRDPASLEQLRATFAKEGIPPEFLSHYEADGPFACLRQNDGLSDKEGHHHHHH”: the “soluble on expression in E. coli” value is reported as “not soluble”.

For “MSLTPPLAPKTVAALHRLGIRTLEELRQNGSVKAFLLLKASGLTLTKSTLWQLESLLDGTPPQEMSQAHKARLLAELKNHPPVAAFPPQEEMEHFMCEALRQAEQSSADGEIPVGAVIVSDGKIIASAHNTCIADCNVSRHAEINALAQAGREIQNYRLDGCDIYITLEPCAMCASALIQARIRRVIYGAAEPKTGAAGSIVNLFADKRLNTHTAIRGGILQEECRAVLSRFFQNKREGHHHHHH”, the “soluble on expression in E. coli” value is recorded as “soluble”.

Regarding “MSLTQMNYAKEGIFTKEMQIVAQKENLSKDFLLENIACGKIIIPANINHKSLDPNGIGFGLRTKVNVNLGVSNDCVDYSEEMKKVELAHKFGIEAIMDLSNYGKTSRFRDELVNVSKAMIGTVPVYDAVGFLEKDLKQINAKDFLDVVYHHAKSGVDFMTIHAGINSRAAHIFKQSKRLTNIVSRGGSVLYAWMMMKDAENPFFEYYDDLLDICLKYDVTLSLGDALRPGSTHDASDGAQISELIELSLLTQRAWDVGIQVMIEGPGHMAINEIEANMQLEKRLCKGAPFYVLGPLVTDIGAGYDHISGAIGGAVAAASGADMLCYVTPAEHLRLPNLEDVREGIVATKIAAHAGDIAKLPKERARDDEMSKARQEIDWEKMFKLAIDGEKAKKMFNERRPDDLNSCSMCGKMCAMNTMNQILKGEDVSLAEGHHHHHH”, the “soluble on expression in E. coli” value is “soluble”.

Turning to “MSLTQRITMEDIARQSGVSLATVSLVLRDKPGINDETRRRVLDIARDLGYRKRLNHEKLVSQSLHNAGVIVKASIGDDSPLTNPFYAPIVAGIEAACRKMHINLMYATVPVDMDNHPQEMPRLLSEDHLDGVLLVGAFADATITKLLQREGIPAVLVDGYSHEHVYDSVVSDNFRAAYEAVSYLISYGHRHIGLIGTTKEAYPSIAERRKGYIQALTDHGIHDQYFGDCLLTMHEGSDTSSILLQRHPQITALFCANDMMAIGATQAARALHRQIPQDLSIIGFDNIDLAQHVAPALTTMHVDKVSMGRFAVQLLANRAEYPDQAPATVSLRPRLLERQSVQREGHHHHHH”, the “soluble on expression in E. coli” value is recorded as “soluble”.

Regarding “MSLTQSSKLIAVIVANIDDYFSTELFKGISSILESRGYIGVLFDANADIEREKTLLRAIGSRGFDGLILQSFSNPQTVQEILHQQMPVVSVDREMDACPWPQVVTDNFEAAKAATTAFRQQGYQHVVVLTSELELSRTRQERYRGILAAAQDVDVLEVSESSYNHSEVHQRLTQLITQNDQKTVAFALKERWLLEFFPNLIISGLIDNQTVTATGFADTDFIRRMEPKLTLITQNPFLMGASSAEIMLRQLAGEKVAPEKMVIPAKLQEGHHHHHH”, the “soluble on expression in E. coli” value was “soluble”.

“MSLTREAYHRLTPLPHPGGRLFIKPGARGYRDPVHDLLQKTVEPFGERALDLNPGVGWGSLPLEGRMAVERLETSRAAFRCLTASGLQARLALPWEAAAGAYDLVVLALPAGRGTAYVQASLVAAARALRMGGRLYLAGDKNKGFERYFKEARALLGYGVVVRREGPYRVALLEKEKEAPPLPSLWRAFSARILGAEYTFHHLPGVFSAGKVDPASLLLLEALQERLGPEGVRGRQVLDLGAGYGALTLPLARMGAEVVGVEDDLASVLSLQKGLEANALKAQALHSDVDEALTEEARFDIIVTNPPFHVGGAVILDVAQAFVNVAAARLRPGGVFFLVSNPFLKYEPLLEEKFGAFQTLKVAEYKVLFAEKRGRHHHHHH”: the “soluble on expression in E. coli” value is “soluble”.

Turning to “MSLTSDKIFFHHLDNLRPSLTPVKELKEPVGQIVCTDKGILAVEQNKVLIPPAWNKTFAWGYADLSCRLGTYESDKAVTVYECLSEWGQILCAVCPNPKLVITGGTSTVVCVWEMGTSKEKAKPLTLKQALLGHTDTVTCATASLAYHIIVSGSRDRTCIIWDLNKLSFLTQLRGHRAPVSALCINELTGDIVSCAGTYIHVWSINGNPIVSVNTFTGRSQQIVCCCMSEMNEWDTQNVIVTGHSDGVVRFWRMEFLQVPETPAPEPVEDLEMQEGCPEAQIGQQAQDDDSSDSETEEPSVSQDPKDTSSQPSSTSHRPRAASCRATATWCTDSGSDDSRRWSDQLSLDEKDGFIFVNYSEGQTRAHLQGPLAHPHPNPIEARSYSRLKPGYRWERQLVFRSKLTMHTAFDRKDNTHPAEVTALGVSKDHSRILVGDSRGRVFSWSVSDQPGRSAADHWVKDEGGDSCSGCSVRFSLTERRHHCRNCGQLFCQKCSRFQSEIKRLKISSPVRVCQNCYYSLQHERGAEDGPRNCEGHHHHHH”, the “soluble on expression in E. coli” value is “not soluble”.

With “MSLTSYALLHTQRVTAKNGEVFTISPDLWERNQQQQSLLLRYFALPLKEENNRLWLGVDSLSNLSACETIAFITGKPVEPILLESSQLKELLQQLTPNQMQVEEQVEGHHHHHH”, the “soluble on expression in E. coli” value is “soluble”.

In the case of “MSLTSYHSHPPKAYRRFESVCTQAPNAIAVVDEGKLVTYQQLQTQVLERSEALIRQGLADHPYMPLMANRCLEYLITMLACCKLGITYVSIEPGTPSKRLIAVLEQLGCNHLLLLGQPTDLRPDPTLTCFRLDDCGTLCYDGPALRPPIRRRLDDASVITVMFTSGTTGLPKGVRISHDGLLNLVDNVQQQVQGKPRSYVHHSSIGFDAALFEVWVPLLTGACVTLQPGAFNIDALDHCVRAASCDVLLLTTSLFHLVAQHRLSMLDAVRVLYVGGEVLKPVHARALLLANPRITLVNGYGPTENTVFSTWYSLNKPEDAERDVMPIGQFLHQVYGKIVDAKLQEVEVGTPGELLLTGANLALGYLDDALTQTRFLQLPEGTYYRTGDYVIEDEHGMLFYQGRIDEQVKIKGFRVEIAEVEHALTQLPGVAQAVVQAHVMNDLEKSLHAFIVLRHGSPTIEESKLMSLLGDRLPHYMVPRRIHYLAELPLTANGKVDKRSLQPPEKAAAAPPQAGSAVLDIWSGILGTRNLQLEHSIYGYGASSLSVVMAHSRINEILGRTTPFDEVARLSTFQEWVQYYATHEDPVTSLRSQHGNEGHHHHHH”, the “soluble on expression in E. coli” value is listed as “not soluble”.

For the sequence “MSLTTDVKDELSRLVVKSVSARRAEVTSLLRFAGGLHIVGGRVVVEAELDLGSIARRLRKEIFELYGYTAVVHVLSASGIRKSTRYVLRVANDGEALARQTGLLDMRGRPVRGLPAQVVGGSIDDAEAAWRGAFLAHGSLTEPGRSSALEVSCPGPEAALALVGAARRLGVGAKAREVRGADRVVVRDGEAIGALLTRMGAQDTRLVWEERRLRREVRATANRLANFDDANLRRSARAAVAAAARVERALEILGDTVPEHLASAGKLRVEHRQASLEELGRLADPPMTKDAVAGRIRRLLSMADRKAKVDGIPDTESVVTPDLLEDAEGHHHHHH”, the “soluble on expression in E. coli” value is recorded as “soluble”.

As to “MSLTTELGRVLVTGGAGFVGANLVTTLLDRGHWVRSFDRAPSLLPAHPQLEVLQGDITDADVCAAAVDGIDTIFHTAAIIELMGGASVTDEYRQRSFAVNVGGTENLLHAGQRAGVQRFVYTSSNSVVMGGQNIAGGDETLPYTDRFNDLYTETKVVAERFVLAQNGVDGMLTCAIRPSGIWGNGDQTMFRKLFESVLKGHVKVLVGRKSARLDNSYVHNLIHGFILAAAHLVPDGTAPGQAYFINDAEPINMFEFARPVLEACGQRWPKMRISGPAVRWVMTGWQRLHFRFGFPAPLLEPLAVERLYLDNYFSIAKARRDLGYEPLFTTQQALTECLPYYVSLFEQMKNEARAEKTAATVKEGHHHHHH”, the “soluble on expression in E. coli” value is listed as “soluble”.

In the case of “MSLTTETRSLYSQLPAIDRLLRDSSFLSLRDTYGHTRVVELLRQMLDEAREVIRGSQTLPAWCENWAQEVDARLTKEAQSALRPVINLTGTVLHTNLGRALQAEAAVEAVAQAMRSPVTLEYDLDDAGRGHRDRALAQLLCRITGAEDACIVNNNAAAVLLMLAATASGKEVVVSRGELVEIGGAFRIPDVMRQAGCTLHEVGTTNRTHANDYRQAVNENTALLMKVHTSNYSIQGFTKAIDEAELVALGKELDVPVVTDLGSGSLVDLSQYGLPKEPMPQELIAAGVSLVSFSGDKLLGGPQAGIIVGKKEMIARLQSHPLKRALRADKMTLAALEATLRLYLHPEALSEKLPTLRLLTRSAEVIQIQAQRLQAPLAAHYGAEFAVQVMPCLSQIGSGSLPVDRLPSAALTFTPHDGRGSHLESLAARWRELPVPVIGRIYDGRLWLDLRCLEDEQRFLEMLLKEGGSHHHHHH”, the “soluble on expression in E. coli” value was “soluble”.

Take “MSLTTHGKPVLVATDLSARTDRAVDRATQLAGEWGVRLIVLHAIEPDSRLHARPELANQAMREVLADPEADVDILPALDLAPTAIVEAAKSADCGLIVTGVARFNHVGDYFIGTAVDHVVRHATVPVLVVKQRPHNAYRTIVVATDYSSCSRLALLTAAEFFPDAAIHLVHAYHVPYEAWLRSDEVREDVTREAQRELDAFVLDPAIPANVRQRISAKLVYGETHTVLSSTAYELGADLLVLGTHGSGGYFAAVMGRMAESLLRCADIDTLVVREIGSTGSEGHHHHHH”: the “soluble on expression in E. coli” value is “soluble”.
